According to patent publication US20160208003A1 (AFFITECH RESEARCH, published 2016):
Numbering of substitutions follows the chain as printed.

T1: human CC chemokine receptor 4 (CCR4) (human, UniProt P51679 1-360)
T1 construct: whole, on cells; Always presented on cells; also called CD194; human CCR4
T1 sequence (looked up): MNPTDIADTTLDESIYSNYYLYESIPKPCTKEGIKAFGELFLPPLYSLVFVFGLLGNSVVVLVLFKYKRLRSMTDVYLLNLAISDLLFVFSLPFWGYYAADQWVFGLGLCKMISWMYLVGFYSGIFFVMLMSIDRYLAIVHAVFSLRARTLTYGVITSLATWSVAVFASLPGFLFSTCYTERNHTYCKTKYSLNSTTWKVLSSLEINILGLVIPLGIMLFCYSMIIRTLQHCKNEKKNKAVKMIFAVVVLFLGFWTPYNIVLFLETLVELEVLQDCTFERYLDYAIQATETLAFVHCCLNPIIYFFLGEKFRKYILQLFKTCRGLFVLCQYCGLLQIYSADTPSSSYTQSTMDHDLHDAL

T2: monkey (Macaca mulatta) CCR4 (monkey (Macaca mulatta), UniProt F7GUA3 1-360)
T2 construct: also called monkey CCR4
T2 sequence: T1 sequence (looked up) with M116I, L201I, L215F, E269D, L334F

B1: 9E10J IgG (full length human IgG1, lambda) (antibody, V domains shown)
VH: QVQLVQSGAEVKKPGSSVKVSCKASGGTFSSYAISWVRQAPGQGLEWMGGIIPIFGTANYAQKFQGRVTMTRDTSTSTVYMELSSLRSEDTAVYYCARRGGSYFDYWGQGTLVTVSS
VL: SYVLTQPPSASGTPGQSVTISCSGSTSNIGSHYVFWYQQLPGTAPRLLIYRNHQRPSGVPDRLSGSKSGTSASLAISGLRSEDEADYYCAVWDDTLSGWVFGGGTKLTVLG
notes: also called IgG 9E10J; unmodified 9E10J
B2: 9E IgG (full length human IgG1, lambda) (antibody, V domains shown)
VH: B1 VH with S31N, M70I, R72A, T74E, V79A
VL: B1 VL
notes: also called IgG 9E; IgG1 9E

Tests used:
[1] = molecular target: T1, human CC chemokine receptor 4 (CCR4); assay: flow cytometry competition on CCRF-CEM cells; unlabelled IgG titrated, competitor 0.7 nM biotinylated IgG 9E
Method: Further competition experiments were carried out to assess whether or not the test antibodies recognise the same or overlapping epitopes, and to determine their relative affinities for CCR4. Antibodies 9E10J, 9E and KM3060var were tested using labelled 9E as a competitor.
DT40 and CCRF-CEM cells were cultivated as described in Example 2. The cells were harvested from culture flasks, washed 2 times with PBS (400×g, 5 min, 4° C.) and resuspended in PBS containing 0.2% BSA and 0.09% NaN3. 1×10^5 cells per well were aliquoted into V-shaped 96-well plates (Griner Bio-One, Frikenhausen, Germany). Cells were centrifuged (400×g, 5 min, 4° C.) and resuspended in 50 μl IgG 9E10J or KM3060var (dilution series starting at 5 μg/ml) mixed with biotinylated competitor antibody 9E (0.1 or 0.5 μg/ml). The cells were incubated for 2 hours at 4° C., mixing with a pipette every 45 min. The cells were washed three times with 150 μl PBS with 0.2% BSA and 0.09% NaN3 and stained with 3 μg/ml streptavidin PE (BD Biosciences) for 45 minutes at 4° C. Cells were washed, resuspended in 200 μl PBS with 0.2% BSA and 0.09% NaN3, and transferred to a U-shaped 96 well Costar (Corning, Schiphol-Rijik, The Netherlands) plate for flow cytometry using an FACS Canto II flow cytometer (BD Biosciences, Heidelberg, Germany).

[2] = molecular target: T1, human CC chemokine receptor 4 (CCR4); assay: flow cytometry competition; antibody titrated, competitor biotinylated TARC; cell line not given
Method: The cells were harvested from culture flasks, washed 2 times with PBS (400×g, 5 min, 4° C.) and resuspended in PBS containing 0.2% BSA and 0.09% NaN3. 1×10^5 cells per well were aliquoted into V-shaped 96-well plates (Greiner Bio-One, Frikenhausen, Germany). Cells were centrifuged (400×g, 5 min, 4° C.) and resuspended in 50 μl IgG, single chain or unlabeled ligand (1:10 dilution series starting on 100/500/26, 4 μg/ml) mixed with a fixed concentration of biotinylated ligand (10 or 20 nM, see legend to FIG. 24). The cells were incubated for 2 hours at 4° C. and mixed with a pipette every 45 min. The cells were washed three times with 150 μl PBS with 0.2% BSA and 0.09% NaN3 and stained with 3 μg/ml streptavidin PE (BD Biosciences) for 45 minutes at 4° C. Cells were washed, resuspended in 200 μl PBS with 0.2% BSA and 0.09% NaN3, and transferred to a U-shaped 96 well Costar (Corning, Schiphol-Rijik, The Netherlands) plate for flow cytometry using an FACS Canto II flow cytometer (BD Biosciences, Heidelberg, Germany). […] Apparent binding affinities (KD) were calculated according to the following equation derived from previously described methods (Kipriyanov et al, 1997b; Schodin & Kranz, 1993): […]

[3] = molecular target: T1, human CC chemokine receptor 4 (CCR4); assay: flow cytometry, saturation titration of IgG on CCRF-CEM cells; one site-specific binding fit
[4] = molecular target: T2, monkey (Macaca mulatta) CCR4; assay: flow cytometry, 10 µg/ml antibody on HEK-293T/17 cells transiently transfected with monkey CCR4, anti-human-IgG-PE
Method: For transient transfection, Hek293T/17 cells were seeded as 2×10^6 cells in a T75 (NUNC) flask. 48 h after seeding, the cells were transfected with Fugene (ROCHE). 40 μl Fugene and 16 μg DNA are used per T75. The cells were used for assays 48 h after transfection.
HEK-293T/17 cells, were transiently transfected either with pcDNA3.1 plasmid encoding human CCR4 or with pLNO plasmids (Norderhaug et al, 1997) encoding either mouse (GeneBank CAA62372) or monkey (Macaca mulatta) CCR4 (PubMed access number XP_001098807) using Fugene (Roche) as a transfection reagent. Non-transfected (CCR4 negative) cells served as a negative control. The cells were cultivated further for 48 hours under regular conditions described above. The cells were washed twice with PBS, detached from the culture flasks by incubating with Accutase (PAA laboratories, Linz, Austria) for 3 minutes at room temperature. The cells were then washed 2 times with PBS (400×g, 5 min, 4° C.) and resuspended in PBS containing 0.2% BSA and 0.09% NaN₃. 1×10⁵ cells per well were aliquoted into V-shaped 96-well plates (Griner Bio-One, Frikenhausen, Germany). Cells were centrifuged (400×g, 5 min, 4° C.) and resuspended in 50 μl of 10 μg/ml 9E or 9E10J, in PBS containing 0.2% BSA and 0.09% NaN3. The cells were incubated further at 4° C. for 60 min. The samples were then washed twice by centrifugation and re-suspension in 100 μl FACS buffer. […]

Row | Binder | IC50 [1] | IC50 [2] | Kd [3] | binding result [4]
1 | B1 | 0.07 nM | 2.5 nM | 0.13 nM | binds
2 | B2 | 0.38 nM | 12.5 nM | 0.37 nM | binds
